Test [1] deals with EGFR-GFP (GFP-labelled epidermal growth factor receptor) in SW620-EGFR-GFP cells (human) (UniProt P00533).
Test [2] has the same target. The source holds these as a separate data set.

Broadly, the stoichiometry N is a count of units in the complex or per binding partner. For the substance “EGF-TMR (epidermal growth factor conjugated to tetramethylrhodamine) (ligand)”, in test [1], the percent of EGFR foci colocalized with EGF (3-60 min) was found to be 40% and the percent of all tracked EGFR molecules in foci colocalized with EGF was 64%. In addition, in test [2], the mean relative stoichiometry EGFR:EGF is 4.2 EGFR:EGF and the stoichiometry N is 1.9 EGFR:EGF.

The values above are taken from doi:10.1101/2020.07.11.198572.
